# Experimental data taken from IntAct's records for PubMed 19494828.
# B1: Caspase-9 (Homo sapiens), P55211 (parent)
# chain: MDEADRRLLRRCRLRLVEELQVDQLWDALLSRELFRPHMIEDIQRAGSGSRRDQARQLIIDLETRGSQALPLFISCLEDTGQDMLASFLRTNRQAAKLSKPTLENLTPVVLRPEIRKPEVLRPETPRPVDIGSGGFGDVGALESLRGNADLAYILSMEPCGHCLIINNVNFCRESGLRTRTGSNIDCEKLRRRFSSLHFMVEVKGDLTAKKMVLALLELAQQDHGALDCCVVVILSHGCQASHLQFPGAVYGTDGCPVSVEKIVNIFNGTSCPSLGGKPKLFFIQACGGEQKDHGFEVASTSPEDESPGSNPEPDATPFQEGLRTFDQLDAISSLPTPSDIFVSYSTFPGFVSWRDPKSGSWYVETLDDIFEQWAHSEDLQSLLLRVANAVSVKGIYKQMPGCFNFLRKKLFFKTS
# Variants of: B1
# Details: with apaf_human APAF1, O14727
# apaf_human APAF1, O14727, sequence (O14727 whole entry): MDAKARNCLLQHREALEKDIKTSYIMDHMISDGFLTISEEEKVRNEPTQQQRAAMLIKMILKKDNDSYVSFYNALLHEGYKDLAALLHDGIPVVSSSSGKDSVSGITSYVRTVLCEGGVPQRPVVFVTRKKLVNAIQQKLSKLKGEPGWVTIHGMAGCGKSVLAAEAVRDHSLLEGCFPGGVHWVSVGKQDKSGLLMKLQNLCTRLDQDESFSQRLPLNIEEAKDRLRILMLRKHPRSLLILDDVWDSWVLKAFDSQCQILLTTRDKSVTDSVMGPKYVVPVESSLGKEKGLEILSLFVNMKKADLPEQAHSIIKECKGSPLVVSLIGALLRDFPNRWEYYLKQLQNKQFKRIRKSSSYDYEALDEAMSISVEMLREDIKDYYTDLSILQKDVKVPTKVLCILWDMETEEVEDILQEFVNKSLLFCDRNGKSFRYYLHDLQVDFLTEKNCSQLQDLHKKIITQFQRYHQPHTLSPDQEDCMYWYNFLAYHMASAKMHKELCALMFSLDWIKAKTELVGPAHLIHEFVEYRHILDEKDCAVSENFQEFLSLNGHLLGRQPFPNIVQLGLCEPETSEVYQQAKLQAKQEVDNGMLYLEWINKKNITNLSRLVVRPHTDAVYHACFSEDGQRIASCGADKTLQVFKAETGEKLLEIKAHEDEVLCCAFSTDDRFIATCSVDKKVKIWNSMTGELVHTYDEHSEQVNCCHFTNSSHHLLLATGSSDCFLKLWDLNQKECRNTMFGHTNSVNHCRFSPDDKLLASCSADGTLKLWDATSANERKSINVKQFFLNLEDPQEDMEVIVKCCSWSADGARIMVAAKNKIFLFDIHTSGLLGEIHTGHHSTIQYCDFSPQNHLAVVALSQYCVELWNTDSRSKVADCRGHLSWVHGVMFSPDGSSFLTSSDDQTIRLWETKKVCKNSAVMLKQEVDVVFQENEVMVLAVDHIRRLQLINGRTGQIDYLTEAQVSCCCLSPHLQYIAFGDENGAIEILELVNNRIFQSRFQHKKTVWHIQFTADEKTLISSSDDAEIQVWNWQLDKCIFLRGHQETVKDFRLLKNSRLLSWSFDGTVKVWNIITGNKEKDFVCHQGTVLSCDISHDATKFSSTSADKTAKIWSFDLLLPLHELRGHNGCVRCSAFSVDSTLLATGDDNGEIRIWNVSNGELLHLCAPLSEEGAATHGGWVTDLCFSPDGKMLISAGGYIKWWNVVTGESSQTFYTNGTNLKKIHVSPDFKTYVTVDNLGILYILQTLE
row,Variant,effect of a mutation on the interaction
1,R56A,disrupting interaction
